According to US6416758:
pEC50: −log10 of the molar value.

Molecular target: VEGF:sFlk-1 complex (VEGF associated with its receptor) (human; mouse) (UniProt P15692)
Experiment: capture ELISA: antibody coated on wells, VEGF complexed with biotinylated sFlk-1 titrated, peroxidase-avidin; concentration giving 50% maximal binding; extrapolated value (*)

Chain of A4.6.1 (mouse anti-human VEGF monoclonal antibody, Genentech) (VH): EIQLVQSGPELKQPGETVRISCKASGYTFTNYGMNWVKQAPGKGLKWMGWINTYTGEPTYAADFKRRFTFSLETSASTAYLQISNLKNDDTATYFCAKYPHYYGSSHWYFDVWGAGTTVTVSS
Chain of A4.6.1 (mouse anti-human VEGF monoclonal antibody, Genentech) (VL): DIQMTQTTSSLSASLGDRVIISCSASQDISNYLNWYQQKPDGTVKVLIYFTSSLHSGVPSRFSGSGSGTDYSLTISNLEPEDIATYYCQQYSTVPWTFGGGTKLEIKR
Chain of VEGF:sFlk-1 complex (VEGF associated with its receptor) (human; mouse) (P15692 other isoform, or with tags, fused parts or gaps limits assumed, chain 1 of 2): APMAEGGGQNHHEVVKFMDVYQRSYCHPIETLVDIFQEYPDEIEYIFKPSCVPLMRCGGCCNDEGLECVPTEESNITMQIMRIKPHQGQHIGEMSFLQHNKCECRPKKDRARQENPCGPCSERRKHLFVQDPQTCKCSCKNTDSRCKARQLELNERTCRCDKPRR
Chain of VEGF:sFlk-1 complex (VEGF associated with its receptor) (human; mouse) (P35918 20-762 limits assumed, chain 2 of 2, further chain): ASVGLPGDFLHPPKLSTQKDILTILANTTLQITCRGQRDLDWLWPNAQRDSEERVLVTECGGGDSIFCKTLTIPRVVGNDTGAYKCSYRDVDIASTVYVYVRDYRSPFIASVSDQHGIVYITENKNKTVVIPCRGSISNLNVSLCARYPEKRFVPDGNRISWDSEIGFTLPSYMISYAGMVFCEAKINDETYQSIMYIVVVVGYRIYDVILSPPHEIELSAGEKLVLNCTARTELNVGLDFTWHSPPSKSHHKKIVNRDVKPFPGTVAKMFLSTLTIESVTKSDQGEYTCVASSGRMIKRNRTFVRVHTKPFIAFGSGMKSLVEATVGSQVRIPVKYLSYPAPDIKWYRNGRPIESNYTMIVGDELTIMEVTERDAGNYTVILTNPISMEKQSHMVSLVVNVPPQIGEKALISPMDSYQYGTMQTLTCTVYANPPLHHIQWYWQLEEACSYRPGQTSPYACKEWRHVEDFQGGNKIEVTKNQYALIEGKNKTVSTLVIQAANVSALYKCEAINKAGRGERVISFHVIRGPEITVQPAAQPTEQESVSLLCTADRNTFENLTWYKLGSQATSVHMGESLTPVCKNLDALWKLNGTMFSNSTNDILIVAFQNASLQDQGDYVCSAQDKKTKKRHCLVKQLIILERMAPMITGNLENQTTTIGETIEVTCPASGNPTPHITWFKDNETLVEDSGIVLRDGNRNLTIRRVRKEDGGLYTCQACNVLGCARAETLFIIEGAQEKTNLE

pEC50: 6.30
Substance: A4.6.1 (mouse anti-human VEGF monoclonal antibody, Genentech)
